{"source": "patent US20200277385A1", "binders": {"B1": {"name": "humanized antibody BIIB059 (antibody, INN chains, looked up, V domains shown)", "VH": "DVQLVESGGGLVKPGGSLRLSCAASGFTFSTYTMSWVRQAPGKGLEWVATISPGDSFGYYYPDSVQGRFTISRDNAKNSLYLQMNSLRAEDTAVYYCTRDIYYNYGAWFAYWGQGTLVTVSS", "VL": "DIQLTQSPSSLSASVGDRVTITCKASQSVDYDGDSYMNWYQQKPGKAPKLLIYAASTLESGVPSRFSGSGSGTDFTLTISSLQPEDFATYYCQQANEDPRTFGQGTKVEIK"}}, "key": {"[1]": {"biological_target": "human CD303 antigen expressed on cells (human) (UniProt Q8WTT0)", "sequence (Q8WTT0 whole entry)": "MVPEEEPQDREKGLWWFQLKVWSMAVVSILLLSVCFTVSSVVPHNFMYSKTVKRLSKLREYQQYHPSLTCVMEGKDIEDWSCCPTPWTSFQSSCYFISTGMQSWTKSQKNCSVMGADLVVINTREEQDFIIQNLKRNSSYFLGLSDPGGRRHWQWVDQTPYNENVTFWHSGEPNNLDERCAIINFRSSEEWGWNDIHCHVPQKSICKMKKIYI", "assay": "flow cytometry on CAL-1 cells (experiment with BIIB059)"}, "[2]": {"biological_target": "human CD303 antigen expressed on cells (human) (UniProt Q8WTT0)", "assay": "cell-based or functional assay"}, "[3]": {"biological_target": "human CD303 antigen expressed on cells (human) (UniProt Q8WTT0)", "assay": "flow cytometry on CAL-1 cells transfected with CD303 (about 40,000-50,000 CD303/cell)"}}, "data": [{"binder": "B1", "values": [{"measurement": "Bmax (MFI)", "setting": "[1]", "value": 11.8, "unit": "MFI"}, {"measurement": "EC50", "setting": "[1]", "value": 0.6, "unit": "µg/mL"}, {"measurement": "ADCC Emax (% lysis), CAL-1 target cells", "setting": "[2]", "value": 1.12, "unit": "% lysis"}, {"measurement": "Bmax (MFI)", "setting": "[3]", "value": 382, "unit": "MFI"}, {"measurement": "EC50", "setting": "[3]", "value": 0.784, "unit": "µg/mL"}]}]}
